# System: Bacillus subtilis
# Assay: cleaved RNA product abundance (RNA/gDNA barcode ratio) relative to median wild-type variant (ratio to wild type); higher = more accumulation of the downstream cleavage product
# Method in brief: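 B. subtilis strains with chromosomally integrated reporter mRNAs (truncated aprE or tetM) holding barcoded, mutagenized RNase Y cleavage-site windows grew in LB at 37°C from OD600 0.0003 to 0.3. Cleaved product abundance is each construct's RNA:gDNA barcode ratio, scaled to the median construct with the unmutated site. It came from sequencing barcodes of gel-selected, reverse-transcribed cleaved RNA and of genomic DNA.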
# [1] = experiment (reporter, strain, medium): exp 4a: truncated aprE reporter, strain BJT201 with 2% xylose (RNase J1 expressed), cleavage site: cggR-gapA (positions -7 to +36 mutated)
# [2] = experiment (reporter, strain, medium): exp 8a: truncated aprE reporter, strain BJT201 with 2% xylose (RNase J1 expressed), cleavage site: glnRA (positions -5 to +31 mutated)
# [3] = experiment (reporter, strain, medium): exp 2b: truncated aprE reporter, strain BJT200, cleavage site: cggR-gapA (positions -7 to +36 mutated)
# [4] = experiment (reporter, strain, medium): exp 6: tetM reporter, strain 168, cleavage site: cggR-gapA (positions -7 to +36 mutated)
Sequence,cleaved RNA product abundance [1],further results
ACAGACGAAGGAGCCGCAAAGAAGTTATTAAGGGTTGAATAATCCCTCAATATAAATATTTCTCACTTATTTAAA,0.512,
CGACATGTCCCGCTTCTTTCATTAATCCGTTACCAAGTGTTTTGCTATATACATTTACCTTTTAAGAGGAGGAAT,,cleaved RNA product abundance [2]: 0.272
ACAGACGAAGGAGCCGCAAAGAAGTTATTAAGGCATGAATAATCCCTCAATATAAAAATCTCTCACTTATTTAAA,0.0882,
ACAGACGAAGGAGCCGCAAAGAAGTTATTAAGAGATGAATGATCCCTCAATATAAATATCTCTCACTTATTTAAA,0.0837,
CGACATGTCCCGCTTCTTTCATTAATCCGTAAGCAACTGTTTTACTATATACATTTACCTTTTAAGAGGAGGAAT,,cleaved RNA product abundance [2]: 0.583
ACAGACGAAGGAGCCGCAAAGAAGTTATTAAGGGATGAATAAACCCTCAGTATAAATATCTCTCACTTATTTAAA,0.211,
ACAGACGAAGGAGCCGCAACGAAGTTATTAACGGATGAATAATCCCTCAATATAAATATCTCTCACTTATTTAAA,0.155,
CGACATGTCCCGCTTCTTTCATTAATCTGTTAGCAACTGTTTTGCTATATACATTTACTTTTTAAGAGGAGGAAT,,cleaved RNA product abundance [2]: 1.68
ACAGACGAAGGAGCCGCAAAGAAGTTATTAAGGGATGAATAATCCCTTAATATAAATATTTCTCACTTATTTAAA,0.494,
ACAGACGAAGGAGCCGCAAAGAAGTTATTAATGGATGAATAATCCCTCAAGATAAATATCTCTCACTTATTTAAA,0.0994,cleaved RNA product abundance [3]: 0.0884
ACAGACGAAGGAGCCGCAAAGAAGTTGTTAAGGGATGAATAATCCCTTAATATAAATATCTCTCACTTATTTAAA,0.892,
CGACATGTCCCGCTTCTTTCATTAATCCGTTAGCAACTGTTTTGCTATATACATTTCCTTTTTAAGAGGAGGAAT,,cleaved RNA product abundance [2]: 0.345
ACAGACGAAGGAGCCGCAAAGAAGTTATTAAGGGATTAATAACCCCTCAATATAAATATCTCTCACTTATTTAAA,0.72,cleaved RNA product abundance [3]: 0.749
CGACATGTCCCGCTTCTTTCATTATTCCGTTAGCAACTGTTTTCCTATATACATTTACCTTTTAAGAGGAGGAAT,,cleaved RNA product abundance [2]: 0.524
ACAGACGAAGGAGCCGCAAAGAAGTTATTAAGGGCTGAATAATCCCTCTATATAAATATCTCTCACTTATTTAAA,0.255,
ACAGACGAAGGAGCCGCAAAGAAGATAATAAGGGATGAATAATCCCTCAATATAAATATCTCTCACTTATTTAAA,0.227,
CGACATGTCCCGCTTCTTTCATTAATCCGTTAGAAACTGTTTTGCTATATACATTTACTTTTTAAGAGGAGGAAT,,cleaved RNA product abundance [2]: 0.331
ACAGACGAAGGAGCCGCAAAGAAGTAATTAAGGGATCAATAATCCCTCAATATAAATATCTCTCACTTATTTAAA,0.305,cleaved RNA product abundance [3]: 0.181
ACAGACGAAGGAGCCGCAAAGAAGTTATTAAGGGATCAATAATCCCTCACTATAAATATCTCTCACTTATTTAAA,0.224,
ACAGACGAAGGAGCCGCAAAGAAGTAATTAAGGGATGAAAAATCCCTCAATATAAATATCTCTCACTTATTTAAA,0.272,cleaved RNA product abundance [3]: 0.163

Sequence,cleaved RNA product abundance [1],further results
ACAGACGAAGGAGCCGCAAAGAAGTAATTAAGGGATGAATAATCCCTCAACATAAATATCTCTCACTTATTTAAA,0.21,
ACAGACGAAGGAGCCGCAAAGAAGTTATTAACGGATGAATAATCCCTAAATATAAATATCTCTCACTTATTTAAA,0.225,cleaved RNA product abundance [4]: 0.194
ACAGACGAAGGAGCCGCAAAGAAGTTATTAAGGGATTAATAAGCCCTCAATATAAATATCTCTCACTTATTTAAA,0.667,cleaved RNA product abundance [3]: 0.453
ACAGACGAAGGAGCCGCAAAGAAGTTATTAAGGGATGAATAATCCCTCAATTTAAATGTCTCTCACTTATTTAAA,0.048,
ACAGACGAAGGAGCCGCAAAGAAGTTATTAAGGCATGAACAATCCCTCAATATAAATATCTCTCACTTATTTAAA,0.0684,
ACAGACGAAGGAGCCGCAAAGAAGTTATTAAGTTATGAATAATCCCTCAATATAAATAACTCTCACTTATTTAAA,0.117,
ACAGACGAAGGAGCCGCAAAGAAGTCATTAAGGCATGAATAATCCCTCAATATAAATATCTCTCACTTATTTAAA,0.102,
ACAGACGAAGGAGCCGCAAAGAAGTTATTAAGGGATGAATAATCCCTCATCATAAATATCTCTCACTTATTTAAA,0.115,cleaved RNA product abundance [3]: 0.192
CGACATGTCCCGCTTCTTTCATTAATCCGTTAGCAACTGTTTCGCTATATACATTTACCTTTTAAGAGGAGGAAT,,cleaved RNA product abundance [2]: 0.358
ACAGACGAAGGAGCCGCAAAGAAGTTATTAAGGGATGAATAATCCCTCTATGTAAATATCTCTCACTTATTTAAA,0.0964,cleaved RNA product abundance [3]: 0.16
ACAGACGAAGGAGCCGCAAAGAAGTTATTAAGTGATAAATAATTCCTCAATATAAATATCTCTCACTTATTTAAA,0.0999,
ACAGACGAAGGAGCCGCAAAGAAGTTATTAAGGTATGAATAATCCCTGAATATAAATATCTCTCACTTATTTAAA,0.0951,cleaved RNA product abundance [3]: 0.0773
CGACATGTCCCGCTTCTTTCATTAATCCGTTAGCACCTGTTTTGCTATATACAGTTACCTTTTAAGAGGAGGAAT,,cleaved RNA product abundance [2]: 0.393
ACAGACGAAGGAGCCGCAAAGAATTTATAAAGGGATGAATAATCCCTCAATATAAATATCTCTCACTTATTTAAA,0.481,cleaved RNA product abundance [3]: 0.355; cleaved RNA product abundance [4]: 0.219
ACAGACGAAGGAGCCGCAGAGAAGTTATTAAGGGATGAATAATCCCACAATATAAATATCTCTCACTTATTTAAA,0.235,
ACAGACGAAGGAGCCGCAAAGAAGTTATGAAGCGATGAATAATCCCTCAATATAAATATCTCTCACTTATTTAAA,0.0897,
ACAGACGAAGGAGCCGCAAAGAAGTTATTAAGAGTTGAATAATCCCTCAATATAAATATCTCTCACTTATTTAAA,0.0897,
CGACATGTCCCGCTTCTTTCATTAATCAGTTAGCAACTTTTTTGCTATATACATTTACCTTTTAAGAGGAGGAAT,,cleaved RNA product abundance [2]: 1.18
CGACATGTCCCGCTTCTTTCATTAATCCATTAGCAGCTGTTTTGCTATATACATTTACCTTTTAAGAGGAGGAAT,,cleaved RNA product abundance [2]: 0.324
ACAGACGAAGGAGCCGCAAAGGAGTTATTAAGGGATGAATAATCCCTCAATAAAAATATCTCTCACTTATTTAAA,,cleaved RNA product abundance [3]: 0.165

Sequence,cleaved RNA product abundance [1],further results
ACAGACGAAGGAGCCGCAAAGTAGTTATTAAAGGATGAATAATCCCTCAATATAAATATCTCTCACTTATTTAAA,0.208,
ACAGACGAAGGAGCCGCTAAGAAGTTATTAAGGGAGGAATAATCCCTCAATATAAATATCTCTCACTTATTTAAA,0.993,
ACAGACGAAGGAGCCGCAAAGAAGTTATTAACGGTTGAATAATCCCTCAATATAAATATCTCTCACTTATTTAAA,0.113,cleaved RNA product abundance [3]: 0.0654
ACAGACGAAGGAGCCGCAAAGAAGTTATTAAGGGATAAATACTCCCTCAATATAAATATCTCTCACTTATTTAAA,0.534,cleaved RNA product abundance [3]: 0.674
ACAGACGAAGGAGCCGCAAACAAGTTATTAAGGGATGAATAAACCCTCAATATAAATATCTCTCACTTATTTAAA,0.38,cleaved RNA product abundance [3]: 0.29
ACAGACGAAGGAGCCGCAACGAAGTTATTAAGGGATGAATACTCCCTCAATATAAATATCTCTCACTTATTTAAA,0.55,
CGACATGTCCCGCTTCTTTCATTAATCCGTTATCAACTGTTTTGCTATATACATTTTCCTTTTAAGAGGAGGAAT,,cleaved RNA product abundance [2]: 0.122
CGACATGTCCCGCTTCTTTCATTAATCCGTTAGCAACTTTTTTGCTATAAACATTTACCTTTTAAGAGGAGGAAT,,cleaved RNA product abundance [2]: 1.58
ACAGACGAAGGAGCCGCAAAGAACTTATGAAGGGATGAATAATCCCTCAATATAAATATCTCTCACTTATTTAAA,,cleaved RNA product abundance [3]: 0.274
CGACATGTCCCGCTTCTTTCATTAATCCGTTAGCAACTGATTTGCAATATACATTTACCTTTTAAGAGGAGGAAT,,cleaved RNA product abundance [2]: 0.49
ACAGACGAAGGAGCCGCAAAGAATTTATTAAGGGATTAATAATCCCTCAATATAAATATCTCTCACTTATTTAAA,0.772,cleaved RNA product abundance [3]: 0.771
ACAGACGAAGGAGCCGCAAAGAAGTTATTAAGGGATGAATAATCCCTAAATATAAATATTTCTCACTTATTTAAA,0.836,
ACAGACGAAGGAGCCGCAAAGAAGTTATTAAGGGATTAATAATCCCTCAAGATAAATATCTCTCACTTATTTAAA,0.254,cleaved RNA product abundance [3]: 0.203
ACAGACGAAGGAGCCGCAAAGAAGTTATTAAGAGATGAATAATCCCTCAATATAAAGATCTCTCACTTATTTAAA,0.186,
CGACATGTCCCGCTTCTTTCATTACTCCTTTAGCAACTGTTTTGCTATATACATTTACCTTTTAAGAGGAGGAAT,,cleaved RNA product abundance [2]: 0.376
ACAGACGAAGGAGCCGCAAAGAAATTATTAAGGGATGAATAATCCCTCAATATAAATTTCTCTCACTTATTTAAA,0.361,
ACAGACGAAGGAGCCGCAAAGAAGTTATTAAGTGATGAATAATCCCTAAATATAAATATCTCTCACTTATTTAAA,0.146,cleaved RNA product abundance [3]: 0.143
CGACATGTCCCGCTTCTTTCATTAATCAGTTAGCAACTGTTTTGTTATATACATTTACCTTTTAAGAGGAGGAAT,,cleaved RNA product abundance [2]: 0.523
ACAGACGAAGGAGCCGCAAAGAAGGTATTAAGGGATGAATAATCCCCCAATATAAATATCTCTCACTTATTTAAA,0.378,
ACAGACGAAGGAGCCGCAAAGAAGTTATTAAAGGATGCATAATCCCTCAATATAAATATCTCTCACTTATTTAAA,0.312,

# Source: the supplement of paper PMC11780869
